Assay results as given in PMC5676682, “Precision Targeting of Tumor Macrophages with a CD206 Binding Peptide” (Scientific Reports, 2017).
Where no end group is shown, it is not given here. FAM = 5(6)-carboxyfluorescein; Ahx = NCCCCCC(=O)O

Molecular target: T1, recombinant mouse macrophage mannose receptor rmMMR/CD206 (mouse, UniProt Q61830 20-1388)
T1 construct: macrophage mannose receptor (CD206/MRC1), mouse, recombinant; take the limits from the vendor's data sheet; also called MRC1; mouse recombinant CD206; source: bought: R&D Systems (catalog number 2535-MM-050)
T1 sequence (looked up): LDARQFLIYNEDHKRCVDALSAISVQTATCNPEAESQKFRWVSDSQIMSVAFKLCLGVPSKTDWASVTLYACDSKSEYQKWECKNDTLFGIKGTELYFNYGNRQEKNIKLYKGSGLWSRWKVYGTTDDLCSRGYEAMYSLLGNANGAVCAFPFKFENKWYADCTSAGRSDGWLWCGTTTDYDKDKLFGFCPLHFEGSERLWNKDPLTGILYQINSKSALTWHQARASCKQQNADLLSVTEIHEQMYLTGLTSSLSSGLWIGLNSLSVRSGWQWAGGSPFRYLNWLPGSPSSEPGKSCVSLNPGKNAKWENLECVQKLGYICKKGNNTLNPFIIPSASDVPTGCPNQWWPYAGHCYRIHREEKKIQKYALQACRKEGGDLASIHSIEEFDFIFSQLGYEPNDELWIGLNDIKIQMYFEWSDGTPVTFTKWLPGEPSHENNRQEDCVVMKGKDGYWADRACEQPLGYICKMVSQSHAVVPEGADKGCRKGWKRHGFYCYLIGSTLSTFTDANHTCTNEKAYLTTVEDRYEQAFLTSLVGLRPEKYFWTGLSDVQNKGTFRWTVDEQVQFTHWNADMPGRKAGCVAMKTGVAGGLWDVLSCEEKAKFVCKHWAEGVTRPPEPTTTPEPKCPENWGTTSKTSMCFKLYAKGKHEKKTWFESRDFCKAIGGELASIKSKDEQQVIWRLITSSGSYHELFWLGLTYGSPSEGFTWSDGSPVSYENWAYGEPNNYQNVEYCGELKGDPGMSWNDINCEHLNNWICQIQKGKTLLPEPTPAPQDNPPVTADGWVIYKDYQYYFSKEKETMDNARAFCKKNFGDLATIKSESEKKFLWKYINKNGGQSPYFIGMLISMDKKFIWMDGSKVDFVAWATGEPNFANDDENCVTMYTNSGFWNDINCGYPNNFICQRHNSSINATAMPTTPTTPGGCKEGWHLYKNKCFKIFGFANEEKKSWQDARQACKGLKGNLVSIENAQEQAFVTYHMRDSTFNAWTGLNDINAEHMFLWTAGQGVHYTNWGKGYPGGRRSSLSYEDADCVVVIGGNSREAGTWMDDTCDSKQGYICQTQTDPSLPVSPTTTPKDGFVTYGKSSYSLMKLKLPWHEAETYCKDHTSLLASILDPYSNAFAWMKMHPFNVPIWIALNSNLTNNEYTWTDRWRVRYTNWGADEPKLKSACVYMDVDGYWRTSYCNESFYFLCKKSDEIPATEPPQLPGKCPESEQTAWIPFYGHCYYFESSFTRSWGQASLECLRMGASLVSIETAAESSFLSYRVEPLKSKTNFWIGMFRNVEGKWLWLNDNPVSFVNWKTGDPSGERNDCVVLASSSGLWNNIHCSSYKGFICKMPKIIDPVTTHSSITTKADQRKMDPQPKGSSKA
Assay: fluorescence polarisation; fluorescence anisotropy in solution, kinetic mode, 50 nM FAM peptide and 1 µM protein (pseudo first-order), 25 °C, 10 mM Na-HEPES, 150 mM NaCl, 1 mM CaCl2, 0.1% Pluronic F-127, pH 7.4
Conditions: both partners purified

B1: FAM-CSPGAK (peptide)
peptide: {FAM-Ahx}-CSPGAK
notes: also called linear CSPGAK motif; source: synthetic peptide; bought: TAG Copenhagen
Q: Does B1 bind?
A: Result: binds
